Laboratory results as given in US7981691B2, “Two helix binders” (General Electric Company, priority 2006, dated 2011).
Positions of bridges follow the written chain, without caps; N, C: chain ends. Non-standard residues stand in square brackets, D forms with d. No end group written: not given here. Aib = CC(C)(N)C(=O)O

Legend:
[1] = molecular target: T1, extracellular domain of the Her2/neu antigen (Fc-Her2) (Homo sapiens, UniProt P04626); assay: SPR (BIAcore) binding of two helix peptides to immobilized Fc-Her2; conditions: relative binding by SPR
T1 construct: The extracellular domain of the Her2/neu antigen was obtained as a conjugate with the Fc region of human IgG; purchased R&D Systems
Experimental: Binding interactions between the binder and the Her2/neu antigen was measured in vitro using surface plasmon resonance (SPR) detection on a BIAcore™ 3000 instrument (Piscataway, N.J.). The extracellular domain of the Her2/neu antigen was obtained as a conjugate with the Fc region of human IgG (Fc-Her2) from R&D Systems and covalently attached to a CM-5 dextran-functionalized sensor chip (BIAcore™) pre-equilibrated with HBS-EP buffer (0.00M HEPES pH 7.4, 0.15M NaCl, 3 mM EDTA, 0.005% v/v surfactant P20) at 10 μL/min and subsequently activated with 1-ethyl-3-[3-dimethylaminopropyl]carbodiimide hydrochloride (EDC) and N-hydroxysuccinimide (NHS). The Fc-Her2 (5 μg/ml) in 10 mM sodium acetate (pH 5.5) was injected onto the activated sensor chip until the desired immobilization level was achieved (2 min). Residual activated groups on the sensor chip were blocked by injection of ethanolamine (1 M, pH 8.5). Any non-covalently bound conjugate was removed by repeated (n=5) washing with 2.5 M NaCl2, 50 mM NaOH.
A second flow cell on the same sensor chip was treated identically, except with no Fc-Her2 immobilization, to serve as a control surface for refractive index changes and non-specific binding interactions with the sensor chip. Prior to the kinetic study, binding of the target analyte was tested on both surfaces and a surface stability experiment was performed to ensure adequate removal of the bound analyte and regeneration of the sensor chip following treatment with 2.5 M NaCl, 50 mM NaOH. SPR sensorgrams were analyzed using the BiaEval (BIAcore) software.
The binding interactions between the generated peptide and Fc-Her2 conjugate were measured using SPR (BIAcore). To minimize mass transport limitations, a surface density of ˜3000 Rus (Response Units) Fc-Her2 was used, resulting in a maximal binding response ˜100 RU with ˜100 nM of the synthesized peptide. SPR measurements were collected at eight analyte concentrations (0-100 nM peptide) and the resulting sensorgrams were fitted to a 1:1 Langmuir binding model.

[2] = CD spectroscopy of 2-helix scaffolds (secondary structure, helicity); type: physicochemical; conditions: Circular Dichroism
Experimental: Secondary structure of different 2-helix scaffold was determined by CD analysis. All CD spectra were obtained on an JASCO J-815 CD spectropolarimeter in the wavelength range of 250-185 nm using 1 nm bandwidth, 0.5 nm resolution, 4 seconds averaging time, 3 scan per sample, 0 second delay, and a path length of 1 mm. Spectra were recorded at 20° C., unless otherwise noted, in a thermostated circular cuvette, with peptide concentrations of 15 μM in 13 mM of K2HPO4 buffer at pH8. Results are reported as mean residue ellipticity (MRW).

Row | Sequence | binding to target molecule Her2 (in words) [1] | helicity / population of helix conformers (in words) [2]
1 | VENKCNKEMRNAYWEIALLPNLNNQXKRAXIRSXYDDPC (VENKCNKEMRNAYWEIALLPNLNNQ[Aib]KRA[Aib]IRS[Aib]YDDPC-NH2; disulfide 5-39 (inferred)) [SEQ. ID. NO. 25] | unable to bind target molecule | helicity increases
2 | VENKCNKXMRNXYWEXALLPNLNNQQKRAFIRSLYDDPC (VENKCNK[Aib]MRN[Aib]YWE[Aib]ALLPNLNNQQKRAFIRSLYDDPC-NH2; disulfide 5-39 (inferred)) [SEQ. ID. NO. 24] | unable to bind target molecule | helicity increases
3 | VENKCNKXMRNXYWEXALLPNLNNQXKRAXIRSXYDDPC (VENKCNK[Aib]MRN[Aib]YWE[Aib]ALLPNLNNQ[Aib]KRA[Aib]IRS[Aib]YDDPC-NH2; disulfide 5-39 (inferred)) [SEQ. ID. NO. 26] | unable to bind target molecule | helicity increases
